Source: publication PMC4312765

Molecular target: Dpy30 C-terminal domain (human), Q9C005
Assay: ITC; Dpy30FL or Dpy30C with synthetic DBM peptides; conditions not shown

Chain of Dpy30 C-terminal domain (human), Q9C005 (Q9C005 45-99): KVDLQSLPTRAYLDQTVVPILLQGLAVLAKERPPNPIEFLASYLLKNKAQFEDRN

- stoichiometry N: 0.5
B1: Bre2 Dpy30-binding motif peptide (peptide)
chain: DTLYKEQIAEDIVWDIIDELEQIALQQ
modifications: not checked
